Measurements: the Human Domainome abundance scans (Beltran et al. 2025)
± gives the uncertainty stated by the source.

B1: Intersectin-1, residues 1156 to 1213; numbered along this chain, Q15811 (parent)
chain: AVCQVIGMYDYTAQNDDELAFNKGQIINVLNKEDPDWWKGEVNGQVGLFPSNYVKLTT
B2: POU domain, class 5, transcription factor 1, residues 134 to 212; numbered along this chain, Q01860 (parent)
chain: EESQDIKALQKELEQFAKLLKQKRITLGYTQADVGLTLGVLFGKVFSQTTICRFEALQLSFKNMCKLRPLLQKWVEEAD

Variants of: B1
Test: abundance fitness (aPCA) (normalised: wild type 0, dead -1); higher = more abundant; growth selection in yeast, the domain comes from the species named
Settings: Homo sapiens
AVCQVIGMYDYTAQNDDELAFNKGQIINVLNKEDPDWWKGEVNGQVGLFPSNYVKPTT [L56P] showed an abundance fitness of -0.121 ± 0.14.
Variant AVCQVIGMYDYTAQNDDELAFNKGQIINVLNKEDPDWWKGEVNGQVGLFPSNYVKQTT [L56Q] has an abundance fitness of -0.151 ± 0.11.
Work on AVCQVIGMYDYTAQNDDELAFNKGQIINVLNKEDPDWWKGEVNGQVGLFPSNYVKRTT [L56R] yielded an abundance fitness of -0.341 ± 0.083.
AVCQVIGMYDYTAQNDDELAFNKGQIINVLNKEDPDWWKGEVNGQVGLFPSNYVKSTT [L56S] showed an abundance fitness of 0.083 ± 0.087.
Work on AVCQVIGMYDYTAQNDDELAFNKGQIINVLNKEDPDWWKGEVNGQVGLFPSNYVKTTT [L56T] yielded an abundance fitness of 0.081 ± 0.14.
In the case of AVCQVIGMYDYTAQNDDELAFNKGQIINVLNKEDPDWWKGEVNGQVGLFPSNYVKVTT [L56V], the abundance fitness is reported as 0.006 ± 0.094.
For AVCQVIGMYDYTAQNDDELAFNKGQIINVLNKEDPDWWKGEVNGQVGLFPSNYVKWTT [L56W], the abundance fitness was -0.405 ± 0.11.
AVCQVIGMYDYTAQNDDELAFNKGQIINVLNKEDPDWWKGEVNGQVGLFPSNYVKYTT [L56Y] gave an abundance fitness of -0.168 ± 0.22.
AVCQVIGMYDYTAQNDDELAFNKGQIINVLNKEDPDWWKGEVNGQVGLFPSNYVKLAT [T57A] gave an abundance fitness of -0.059 ± 0.083.
AVCQVIGMYDYTAQNDDELAFNKGQIINVLNKEDPDWWKGEVNGQVGLFPSNYVKLCT [T57C] showed an abundance fitness of -0.115 ± 0.12.
For AVCQVIGMYDYTAQNDDELAFNKGQIINVLNKEDPDWWKGEVNGQVGLFPSNYVKLDT [T57D], the abundance fitness was -0.055 ± 0.15.
For AVCQVIGMYDYTAQNDDELAFNKGQIINVLNKEDPDWWKGEVNGQVGLFPSNYVKLET [T57E], the abundance fitness was -0.519 ± 0.16.
With AVCQVIGMYDYTAQNDDELAFNKGQIINVLNKEDPDWWKGEVNGQVGLFPSNYVKLFT [T57F] the abundance fitness was 0.086 ± 0.15.
AVCQVIGMYDYTAQNDDELAFNKGQIINVLNKEDPDWWKGEVNGQVGLFPSNYVKLHT [T57H] showed an abundance fitness of -0.003 ± 0.14.
Work on AVCQVIGMYDYTAQNDDELAFNKGQIINVLNKEDPDWWKGEVNGQVGLFPSNYVKLIT [T57I] yielded an abundance fitness of -0.13 ± 0.14.
AVCQVIGMYDYTAQNDDELAFNKGQIINVLNKEDPDWWKGEVNGQVGLFPSNYVKLKT [T57K] gave an abundance fitness of -0.024 ± 0.21.
For AVCQVIGMYDYTAQNDDELAFNKGQIINVLNKEDPDWWKGEVNGQVGLFPSNYVKLLT [T57L], the abundance fitness was -0.116 ± 0.11.
AVCQVIGMYDYTAQNDDELAFNKGQIINVLNKEDPDWWKGEVNGQVGLFPSNYVKLMT [T57M] gave an abundance fitness of -0.009 ± 0.15.
With AVCQVIGMYDYTAQNDDELAFNKGQIINVLNKEDPDWWKGEVNGQVGLFPSNYVKLNT [T57N] the abundance fitness was -0.028 ± 0.17.
Work on AVCQVIGMYDYTAQNDDELAFNKGQIINVLNKEDPDWWKGEVNGQVGLFPSNYVKLQT [T57Q] yielded an abundance fitness of 0.028 ± 0.15.
AVCQVIGMYDYTAQNDDELAFNKGQIINVLNKEDPDWWKGEVNGQVGLFPSNYVKLRT [T57R] gave an abundance fitness of -0.131 ± 0.078.
With AVCQVIGMYDYTAQNDDELAFNKGQIINVLNKEDPDWWKGEVNGQVGLFPSNYVKLST [T57S] the abundance fitness was -0.174 ± 0.09.
In the case of AVCQVIGMYDYTAQNDDELAFNKGQIINVLNKEDPDWWKGEVNGQVGLFPSNYVKLVT [T57V], the abundance fitness is reported as -0.06 ± 0.089.
Work on AVCQVIGMYDYTAQNDDELAFNKGQIINVLNKEDPDWWKGEVNGQVGLFPSNYVKLWT [T57W] yielded an abundance fitness of -0.167 ± 0.12.
With AVCQVIGMYDYTAQNDDELAFNKGQIINVLNKEDPDWWKGEVNGQVGLFPSNYVKLYT [T57Y] the abundance fitness was -0.063 ± 0.15.
In the case of AVCQVIGMYDYTAQNDDELAFNKGQIINVLNKEDPDWWKGEVNGQVGLFPSNYVKLTA [T58A], the abundance fitness is reported as -0.315 ± 0.16.
Work on AVCQVIGMYDYTAQNDDELAFNKGQIINVLNKEDPDWWKGEVNGQVGLFPSNYVKLTG [T58G] yielded an abundance fitness of 0.053 ± 0.22.
In the case of AVCQVIGMYDYTAQNDDELAFNKGQIINVLNKEDPDWWKGEVNGQVGLFPSNYVKLTI [T58I], the abundance fitness is reported as -0.587 ± 0.4.
With AVCQVIGMYDYTAQNDDELAFNKGQIINVLNKEDPDWWKGEVNGQVGLFPSNYVKLTL [T58L] the abundance fitness was -0.187 ± 0.41.
AVCQVIGMYDYTAQNDDELAFNKGQIINVLNKEDPDWWKGEVNGQVGLFPSNYVKLTN [T58N] showed an abundance fitness of -0.233 ± 0.26.
AVCQVIGMYDYTAQNDDELAFNKGQIINVLNKEDPDWWKGEVNGQVGLFPSNYVKLTP [T58P] gave an abundance fitness of -0.09 ± 0.2.
AVCQVIGMYDYTAQNDDELAFNKGQIINVLNKEDPDWWKGEVNGQVGLFPSNYVKLTR [T58R] gave an abundance fitness of 0.062 ± 0.26.
AVCQVIGMYDYTAQNDDELAFNKGQIINVLNKEDPDWWKGEVNGQVGLFPSNYVKLTS [T58S] gave an abundance fitness of -0.144 ± 0.16.
In the case of AVCQVIGMYDYTAQNDDELAFNKGQIINVLNKEDPDWWKGEVNGQVGLFPSNYVKLTV [T58V], the abundance fitness is reported as -0.113 ± 0.32.

Variants of: B2
Test: as above
Settings: Homo sapiens
With GESQDIKALQKELEQFAKLLKQKRITLGYTQADVGLTLGVLFGKVFSQTTICRFEALQLSFKNMCKLRPLLQKWVEEAD [E1G] the abundance fitness was 0.053 ± 0.073.
With KESQDIKALQKELEQFAKLLKQKRITLGYTQADVGLTLGVLFGKVFSQTTICRFEALQLSFKNMCKLRPLLQKWVEEAD [E1K] the abundance fitness was -0.034 ± 0.24.
With LESQDIKALQKELEQFAKLLKQKRITLGYTQADVGLTLGVLFGKVFSQTTICRFEALQLSFKNMCKLRPLLQKWVEEAD [E1L] the abundance fitness was -0.135 ± 0.23.
With MESQDIKALQKELEQFAKLLKQKRITLGYTQADVGLTLGVLFGKVFSQTTICRFEALQLSFKNMCKLRPLLQKWVEEAD [E1M] the abundance fitness was 0.273 ± 0.15.
QESQDIKALQKELEQFAKLLKQKRITLGYTQADVGLTLGVLFGKVFSQTTICRFEALQLSFKNMCKLRPLLQKWVEEAD [E1Q] showed an abundance fitness of 0.066 ± 0.31.
With RESQDIKALQKELEQFAKLLKQKRITLGYTQADVGLTLGVLFGKVFSQTTICRFEALQLSFKNMCKLRPLLQKWVEEAD [E1R] the abundance fitness was 0.064 ± 0.14.
SESQDIKALQKELEQFAKLLKQKRITLGYTQADVGLTLGVLFGKVFSQTTICRFEALQLSFKNMCKLRPLLQKWVEEAD [E1S] showed an abundance fitness of -0.58 ± 0.45.
For VESQDIKALQKELEQFAKLLKQKRITLGYTQADVGLTLGVLFGKVFSQTTICRFEALQLSFKNMCKLRPLLQKWVEEAD [E1V], the abundance fitness was -0.45 ± 0.16.
Variant WESQDIKALQKELEQFAKLLKQKRITLGYTQADVGLTLGVLFGKVFSQTTICRFEALQLSFKNMCKLRPLLQKWVEEAD [E1W] has an abundance fitness of -0.244 ± 0.33.
EGSQDIKALQKELEQFAKLLKQKRITLGYTQADVGLTLGVLFGKVFSQTTICRFEALQLSFKNMCKLRPLLQKWVEEAD [E2G] showed an abundance fitness of 0.211 ± 0.26.
